According to patent US8846861B2, “Peptide clearing agents” (Mologic Ltd, priority 2009, dated 2014):

System: CCL 229 (LoVo) CEA expressing cell line
Assay: Flow cytometry cell binding, CEA expressing cell line
Type: cell-based
Conditions: CCL 229, PE label, 1 hour at 4° C.
Protocol: Measurement by Flow Cytometry of Binding Capability of scFv Anti-CEA-CPG2 Using CEA Expressing Cells.
CRL 1573—control cell line, CCL 229 (LoVo)—CEA expressing cell line
Cultured cells were both used at 2×10^5 cells per tube, cells in tubes were prepared to contain the following
Cells were spun down and 100 μl of antibody solution was added to respective tube. 100 μl buffer was added to tubes 1 and 2 and left in fridge until later.
Tubes were incubated in the dark at 4° C. for 1 hour, add 1 ml PBSAB and spun as above. Include tube 1 in this wash. The supernatant was removed and 100 μl conjugate was added to tube 6 for a further incubation of 1 hr in the dark at 4° C.
Added 150 μl 0.5% formaldehyde to tubes 1, 3, 4 and 5, stored in the fridge until measured (˜2 hours). Washed tube 6 as before and add formaldehyde to this tube. 30 minutes before measuring add 100 μl Propidium Iodine to tube 2, before measuring, added 1 ml of PBS to all samples.

B1: CPG2 control: carboxypeptidase G2 conjugated to phycoerythrin, control without anti-CEA part (protein)
chain: ALAQKRDNVLFQAATDEQPAVIKTLEKLVNIETGTGDAEGIAAAGNFLEAELKNLGFTVTRSKSAGLVVGDNIVGKIKGRGGKNLLLMSHMDTVYLKGILAKAPFRVEGDKAYGPGIADDKGGNAVILHTLKLLKEYGVRDYGTITVLFNTDEEKGSFGSRDLIQEEAKLADYVLSFEPTSAGDEKLSLGTSGIAYVQVNITGKASHAGAAPELGVNALVEASDLVLRTMNIDDKAKNLRFNWTIAKAGNVSNIIPASATLNADVRYARNEDFDAAMKTLEERAQQKKLPEADVKVIVTRGRPAFNAGEGGKKLVDKAVAYYKEAGGTLGVEERTGGGTDAAYAALSGKPVIESLGLPGFGYHSDKAEYVDISAIPRRLYMAARLIMDLGAGK
- binding to cells by flow cytometry (in words): does not bind
